According to patent US12590158 (XIYUAN ANJIAN MEDICINE SHANGHAI, dated 2026):

What was measured:
[1] = molecular target: T1, human TrkB expressed on CHO cells (TrkB/CHO, ThermoFisher K1491) (human, UniProt Q16620 32-822); assay: flow cytometry on TrkB/CHO cells, FITC goat anti-human Fc
T1 construct: whole, on cells
Method: (§1) CHO-K1 was used as a negative control. The binding of the humanized antibodies to the four cell lines was detected by flow cytometry.
(§2) The cells were cultured according to the manufacturer's instruction. The cells were harvested in the logarithmic growth phase, re-suspended in flow buffer (PBS+2% FBS, pH 7.4), and added into 96-well plate, 10^5 cells per well (50 µl). 50 µl of 100 µg/mL humanized anti-TrkA antibody was added, incubated at room temperature for 60 min, and centrifuged at 1200 rpm. The supernatant was discarded and the cells were washed 3 times. FITC-labeled goat anti-human Fc antibody (Abeam, ab97224) was diluted to 5 µg/mL with flow buffer and used to re-suspend the cells, incubated at room temperature for 30 min in the dark, centrifuged, and the supernatant was discarded. After washing 3 times, the cells were re-suspended with 7AAD solution (Biolegend, 420403), incubated for 10 min at room temperature, and the binding of the antibody was detected with a flow cytometer (BioRad, ZE5).

[2] = molecular target: T2, full-length human TrkA expressed on cells (human, UniProt P04629 33-796); assay: cell-based or functional assay
[3] = molecular target: T3, human TrkC expressed on CHO cells (TrkC/CHO, ThermoFisher K1515) (human, UniProt Q16288 32-839); assay: flow cytometry on TrkC/CHO cells, FITC goat anti-human Fc
T3 construct: whole, on cells
Method: as §1, §2

[4] = molecular target: T2, full-length human TrkA expressed on …; assay: flow cytometry titration on TrkA/CHO cells
Method: as §2
The binding curve of the humanized anti-TrkA antibodies and TrkA/CHO cells was detected with the same flow cytometry.

[5] = molecular target: T4, human TrkA extracellular region (33-417) protein containing mouse Fc (human, UniProt P04629 33-417); assay: ELISA, coated human TrkA (33-417)-mouse Fc, anti-human IgG-HRP
T4 construct: range 33-417
Method: Each well of a 96-well microtiter plate was coated with 50 ng of human TrkA, washed and blocked, then added with serially diluted humanized antibodies, and incubated for 1 hour at room temperature. After washing three times, horseradish peroxidase-conjugated goat anti-human IgG antibody (ThermoFisher, A18817) was added and reacted at room temperature for 1 hour. After washing three time, tetramethylbenzidine (TMB, Biolegend) was added for color development. 1M HCl was used to terminate the color development, and the absorbance values were read at 450 nm with a microplate reader.

[6] = molecular target: T2, full-length human TrkA expressed on …; assay: cell-based or functional assay; remark: listed apart in the source
[7] = molecular target: T3, human TrkC expressed on CHO cells …; assay: flow cytometry on TrkC/CHO cells
Method: as §1, §2

[8] = molecular target: T1, human TrkB expressed on CHO cells …; assay: flow cytometry on TrkB/CHO cells
Method: as §1, §2

[9] = molecular target: T5, TrkA extracellular region (33-417) protein comprising human Fc (ACROBiosystems TRA-H5259) (human, UniProt P04629 33-417); assay: competition ELISA, coated TrkA (33-417)-hFc, antibody titrated, competitor biotin-labeled human NGF
T5 construct: range 33-417; Bought fusion protein; also called human TrkA (33-417); human TrkA extracellular region
Method: Each well of a 96-well microtiter plate was coated with 50 ng of TrkA extracellular region (33-417) protein fused to human Fc, washed three times and blocked with 3% BSA for 1 hour. […] Each well was added with 100 μl and incubated at room temperature for 30 minutes. […] Streptavidin-labeled horseradish peroxidase (Streptavidin-HRP, Biolegend, 405210) was added and incubated for 0.5 hours. After washing three times, TMB was added to the plate, and the absorbance at 450 nm was read by a microplate reader after the color development was terminated.

[10] = molecular target: full-length human TrkA expressed on cells (human) (UniProt P04629); assay: cell-based or functional assay
full-length human TrkA expressed on cells (human), sequence (P04629 33-796): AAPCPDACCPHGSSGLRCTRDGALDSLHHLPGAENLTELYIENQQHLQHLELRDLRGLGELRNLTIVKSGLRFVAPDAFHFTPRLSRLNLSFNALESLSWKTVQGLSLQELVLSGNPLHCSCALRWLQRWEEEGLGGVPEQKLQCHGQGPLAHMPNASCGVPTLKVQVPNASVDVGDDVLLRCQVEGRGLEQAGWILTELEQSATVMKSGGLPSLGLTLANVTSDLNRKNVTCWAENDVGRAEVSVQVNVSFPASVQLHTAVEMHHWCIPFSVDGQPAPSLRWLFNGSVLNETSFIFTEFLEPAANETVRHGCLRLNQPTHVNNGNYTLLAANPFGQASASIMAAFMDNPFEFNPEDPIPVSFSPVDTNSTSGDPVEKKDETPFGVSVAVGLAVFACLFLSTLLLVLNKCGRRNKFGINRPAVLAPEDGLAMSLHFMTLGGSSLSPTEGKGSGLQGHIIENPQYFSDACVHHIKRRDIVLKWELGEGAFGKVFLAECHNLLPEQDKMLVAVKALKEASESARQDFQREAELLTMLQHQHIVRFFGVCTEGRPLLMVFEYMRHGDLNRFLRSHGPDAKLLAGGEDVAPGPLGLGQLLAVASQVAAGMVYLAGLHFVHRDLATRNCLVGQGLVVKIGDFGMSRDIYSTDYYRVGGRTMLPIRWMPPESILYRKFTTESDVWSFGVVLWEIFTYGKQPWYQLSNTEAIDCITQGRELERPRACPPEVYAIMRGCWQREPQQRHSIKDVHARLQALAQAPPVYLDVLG

T3 sequence (Q16288 32-839): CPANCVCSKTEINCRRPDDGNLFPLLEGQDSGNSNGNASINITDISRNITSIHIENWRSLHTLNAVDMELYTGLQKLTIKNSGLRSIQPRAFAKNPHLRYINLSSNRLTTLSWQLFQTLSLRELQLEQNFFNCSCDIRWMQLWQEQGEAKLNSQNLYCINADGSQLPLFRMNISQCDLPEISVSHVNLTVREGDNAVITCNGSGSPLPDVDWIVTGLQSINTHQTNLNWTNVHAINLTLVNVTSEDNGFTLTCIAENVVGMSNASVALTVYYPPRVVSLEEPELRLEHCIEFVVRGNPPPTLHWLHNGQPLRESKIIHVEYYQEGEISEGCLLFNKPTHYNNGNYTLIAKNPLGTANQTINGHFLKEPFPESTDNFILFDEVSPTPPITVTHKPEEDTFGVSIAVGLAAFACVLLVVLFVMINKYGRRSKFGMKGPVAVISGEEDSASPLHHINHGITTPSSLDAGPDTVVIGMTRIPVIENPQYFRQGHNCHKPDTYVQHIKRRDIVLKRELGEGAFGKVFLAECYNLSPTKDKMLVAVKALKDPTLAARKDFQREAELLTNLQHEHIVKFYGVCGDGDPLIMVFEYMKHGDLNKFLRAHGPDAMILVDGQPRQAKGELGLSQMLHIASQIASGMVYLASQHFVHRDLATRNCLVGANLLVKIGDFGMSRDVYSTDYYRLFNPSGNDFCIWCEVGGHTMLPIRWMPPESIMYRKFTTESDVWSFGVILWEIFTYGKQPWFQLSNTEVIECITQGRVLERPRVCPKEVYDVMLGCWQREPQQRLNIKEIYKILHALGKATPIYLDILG
T2 sequence (P04629 33-796): as the sequence (P04629 33-796) above
T4 sequence (P04629 33-417 limits assumed): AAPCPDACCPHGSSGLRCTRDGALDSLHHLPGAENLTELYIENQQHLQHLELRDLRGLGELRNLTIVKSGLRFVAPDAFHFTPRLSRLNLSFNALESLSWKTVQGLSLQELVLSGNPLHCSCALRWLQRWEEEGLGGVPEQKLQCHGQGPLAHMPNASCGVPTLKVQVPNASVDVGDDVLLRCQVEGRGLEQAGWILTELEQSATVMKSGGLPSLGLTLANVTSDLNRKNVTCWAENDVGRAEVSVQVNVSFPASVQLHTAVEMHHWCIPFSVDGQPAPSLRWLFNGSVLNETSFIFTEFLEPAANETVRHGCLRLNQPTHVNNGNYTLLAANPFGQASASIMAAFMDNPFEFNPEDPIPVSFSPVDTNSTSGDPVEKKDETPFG
T1 sequence (Q16620 32-822): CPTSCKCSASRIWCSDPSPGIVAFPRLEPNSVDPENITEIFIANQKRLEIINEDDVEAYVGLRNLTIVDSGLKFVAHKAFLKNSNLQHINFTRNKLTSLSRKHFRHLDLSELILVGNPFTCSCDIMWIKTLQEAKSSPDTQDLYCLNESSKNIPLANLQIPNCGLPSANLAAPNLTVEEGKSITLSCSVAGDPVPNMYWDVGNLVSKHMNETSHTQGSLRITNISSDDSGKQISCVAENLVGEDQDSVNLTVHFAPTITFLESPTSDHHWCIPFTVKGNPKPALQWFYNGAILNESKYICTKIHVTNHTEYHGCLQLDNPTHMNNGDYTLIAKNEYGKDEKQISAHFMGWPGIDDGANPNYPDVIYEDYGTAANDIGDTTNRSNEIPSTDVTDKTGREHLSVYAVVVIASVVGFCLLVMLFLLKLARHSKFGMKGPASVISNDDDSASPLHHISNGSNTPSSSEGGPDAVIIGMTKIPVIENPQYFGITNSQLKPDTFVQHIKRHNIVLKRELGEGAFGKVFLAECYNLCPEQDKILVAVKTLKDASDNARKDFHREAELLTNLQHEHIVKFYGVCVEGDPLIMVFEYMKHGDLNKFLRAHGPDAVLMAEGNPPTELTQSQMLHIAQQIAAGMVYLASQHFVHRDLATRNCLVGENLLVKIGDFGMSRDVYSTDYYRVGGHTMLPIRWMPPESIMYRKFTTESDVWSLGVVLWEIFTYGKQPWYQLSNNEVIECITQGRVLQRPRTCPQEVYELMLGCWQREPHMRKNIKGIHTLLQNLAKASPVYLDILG
T5 sequence (P04629 33-417 limits assumed): as the sequence (P04629 33-417 limits assumed) above

B1: human-mouse chimeric antibody 42F5-Chi (antibody, V domains shown)
VH: QVQLQQPGAELVKPGASVKLSCKSSGYTFTNYWMHWVRQRPGQGLEWIGEIYPNNGRVNYNEKFKNRATLTVDISSSTAYMQLSSLTSEDSAVYYCARSRYDPMEDWGQGTSVTVSS
VL: QVVLTQSPAIMSASPGEKVTMTCSASSSVGYMHWYQQKSGTSPKRWIYDTSKLASGVPTRFSGSGSGTSYSLTISSMEAEDAATYFCQQWSSIPLTFGSGTRLEIK
[1]
  binding result: no binding
[2]
  IC50 of inhibiting NGF-induced TrkA/Ba/F3 cell proliferation: 2.92 nM
[3]
  binding result: no binding
[4]
  EC50: 0.49 nM
[5]
  EC50: 0.062 nM
[6]
  IC50 of inhibiting NGF-induced TF-1 cell proliferation: 1.55 nM

B2: humanized anti-TrkA antibody 42F5-01 (antibody, V domains shown)
VH: QVQLVQSGAEVKKPGASVKVSCKSSGYTFTNYWMHWVRQAPGQGLEWMGEIYPNNGRVNYNEKFKNRVTMTVDISISTAYMELSRLRSDDTAVYYCARSRYDPMEDWGQGTTVTVSS
VL: DVQLTQSPSSLSASVGDRVTITCSASSSVGYMHWYQQKPGKAPKRLIYDTSKLASGVPSRFSGSGSGTDYTLTISSLQPEDFATYFCQQWSSIPLTFGQGTRLEIK
notes: VH grafted to human IgG4 heavy chain constant region, VL to human Kappa light chain constant region; also called 43F5-01 [sic]
[1]
  binding result: no binding
[2]
  IC50 of inhibiting NGF-induced TrkA/Ba/F3 cell proliferation: 2.97 nM
[3]
  binding result: no binding
[4]
  EC50: 0.605 nM
[5]
  EC50: 0.061 nM
[6]
  IC50 of inhibiting NGF-induced TF-1 cell proliferation: 1.57 nM

B3: humanized anti-TrkA antibody 42F5-11 (antibody, V domains shown)
VH: QVQLVQSGAEVKKPGASVKVSCKSSGYTFTNYWMHWVRQAPGQGLEWIGEIYPNNGRVNYNEKFKNRATLTVDISISTAYMELSRLRSDDTAVYYCARSRYDPMEDWGQGTTVTVSS
VL: EVVLTQSPATLSLSPGERATLSCSASSSVGYMHWYQQKPGQAPRRWIYDTSKLASGVPARFSGSGSGTDYTLTISSLEPEDAAVYFCQQWSSIPLTFGQGTRLEIK
notes: VH grafted to human IgG4 heavy chain constant region, VL to human Kappa light chain constant region
[1]
  binding result: no binding
[2]
  IC50 of inhibiting NGF-induced TrkA/Ba/F3 cell proliferation: 2.81 nM
[3]
  binding result: no binding
[4]
  EC50: 0.513 nM
[5]
  EC50: 0.05 nM
[6]
  IC50 of inhibiting NGF-induced TF-1 cell proliferation: 1.4 nM

B4: humanized anti-TrkA antibody 42F5-14 (antibody, V domains shown)
VH: QVQLVQSGAEVKKPGASVKVSCKSSGYTFTNYWMHWVRQAPGQGLEWMGEIYPNQGRVNYNEKFKNRVTMTVDISISTAYMELSRLRSDDTAVYYCARSRYDPMEDWGQGTTVTVSS
VL: DVQLTQSPSSLSASVGDRVTITCSASSSVGYMHWYQQKPGKAPKRLIYDTSKLASGVPSRFSGSGSGTDYTLTISSLQPEDFATYFCQQWSSIPLTFGQGTRLEIK
notes: 42F5-01 with NG55-56 of the VH mutated to QG55-56
[1]
  binding result: no binding
[2]
  IC50 of inhibiting NGF-induced TrkA/Ba/F3 cell proliferation: 3.27 nM
[3]
  binding result: no binding
[4]
  EC50: 0.547 nM
[5]
  EC50: 0.071 nM
[6]
  IC50 of inhibiting NGF-induced TF-1 cell proliferation: 1.94 nM

B5: humanized anti-TrkA antibody 42F5-05 (antibody, V domains shown)
VH: QVQLVQSGAEVKKPGASVKVSCKSSGYTFTNYWMHWVRQAPGQGLEWMGEIYPNNGRVNYNEKFKNRVTMTVDISISTAYMELSRLRSDDTAVYYCARSRYDPMEDWGQGTTVTVSS
VL: QVQLTQSPSSLSASVGDRVTITCSASSSVGYMHWYQQKPGKAPKRLIYDTSKLASGVPSRFSGSGSGTDYTLTISSLQPEDFATYFCQQWSSIPLTFGQGTRLEIK
notes: as for B3
[1]
  binding result: no binding
[2]
  IC50 of inhibiting NGF-induced TrkA/Ba/F3 cell proliferation: 4.42 nM
[3]
  binding result: no binding
[4]
  EC50: 0.68 nM
[5]
  EC50: 0.072 nM
[6]
  IC50 of inhibiting NGF-induced TF-1 cell proliferation: 1.48 nM

B6: humanized anti-TrkA antibody 42F5-04 (antibody, V domains shown)
VH: QVQLVQSGAEVKKPGSSVKVSCKSSGYTFTNYWMHWVRQAPGQGLEWIGEIYPNNGRVNYNEKFKNRATLTVDISTSTAYMELSSLRSEDTAVYYCARSRYDPMEDWGQGTTVTVSS
VL: DVQLTQSPSSLSASVGDRVTITCSASSSVGYMHWYQQKPGKAPKRWIYDTSKLASGVPSRFSGSGSGTDYTLTISSLQPEDFATYFCQQWSSIPLTFGQGTRLEIK
notes: as for B3
[2]
  IC50 of inhibiting NGF-induced TrkA/Ba/F3 cell proliferation: 3.69 nM
[7]
  binding result: no binding (tested: 50 µl of 100 µg/mL)
[8]
  binding result: no binding (tested: 50 µl of 100 µg/mL)
[5]
  EC50: 0.07 nM
[6]
  IC50 of inhibiting NGF-induced TF-1 cell proliferation: 1.69 nM

B7: humanized anti-TrkA antibody 42F5-13 (antibody, V domains shown)
VH: QVQLVQSGAEVKKPGASVKVSCKSSGYTFTNYWMHWVRQAPGQGLEWMGEIYPNSGRVNYNEKFKNRVTMTVDISISTAYMELSRLRSDDTAVYYCARSRYDPMEDWGQGTTVTVSS
VL: DVQLTQSPSSLSASVGDRVTITCSASSSVGYMHWYQQKPGKAPKRLIYDTSKLASGVPSRFSGSGSGTDYTLTISSLQPEDFATYFCQQWSSIPLTFGQGTRLEIK
notes: 42F5-01 with NG55-56 of the VH mutated to SG55-56
[1]
  binding result: no binding
[2]
  IC50 of inhibiting NGF-induced TrkA/Ba/F3 cell proliferation: 3.31 nM
[3]
  binding result: no binding
[4]
  EC50: 0.518 nM
[5]
  EC50: 0.087 nM
[6]
  IC50 of inhibiting NGF-induced TF-1 cell proliferation: 0.867 nM

B8: humanized anti-TrkA antibody 42F5-08 (antibody, V domains shown)
VH: QVQLVQSGAEVKKPGSSVKVSCKSSGYTFTNYWMHWVRQAPGQGLEWIGEIYPNNGRVNYNEKFKNRATLTVDISTSTAYMELSSLRSEDTAVYYCARSRYDPMEDWGQGTTVTVSS
VL: QVQLTQSPSSLSASVGDRVTITCSASSSVGYMHWYQQKPGKAPKRWIYDTSKLASGVPSRFSGSGSGTDYTLTISSLQPEDFATYFCQQWSSIPLTFGQGTRLEIK
notes: VH grafted to human IgG4 heavy chain constant region, VL to human Kappa light chain constant region; also called 43F5-08 [sic]
[1]
  binding result: no binding
[2]
  IC50 of inhibiting NGF-induced TrkA/Ba/F3 cell proliferation: 3.54 nM
[3]
  binding result: no binding
[4]
  EC50: 0.535 nM
[5]
  EC50: 0.055 nM
[6]
  IC50 of inhibiting NGF-induced TF-1 cell proliferation: 1.65 nM

B9: humanized anti-TrkA antibody 42F5-03 (antibody, V domains shown)
VH: QVQLVQSGAEVKKPGASVKVSCKSSGYTFTNYWMHWVRQAPGQGLEWIGEIYPNNGRVNYNEKFKNRATLTVDISISTAYMELSRLRSDDTAVYYCARSRYDPMEDWGQGTTVTVSS
VL: DVQLTQSPSSLSASVGDRVTITCSASSSVGYMHWYQQKPGKAPKRWIYDTSKLASGVPSRFSGSGSGTDYTLTISSLQPEDFATYFCQQWSSIPLTFGQGTRLEIK
notes: as for B3
[2]
  IC50 of inhibiting NGF-induced TrkA/Ba/F3 cell proliferation: 2.91 nM
[7]
  binding result: no binding (tested: 50 µl of 100 µg/mL)
[8]
  binding result: no binding (tested: 50 µl of 100 µg/mL)
[5]
  EC50: 0.056 nM
[6]
  IC50 of inhibiting NGF-induced TF-1 cell proliferation: 1.43 nM

B10: control antibody BXhVH5VL1 (antibody, V domains shown)
VH: EVKLLESGGGLVQPGGSLRLSCAASGFTFSTYTMSWVRQTPGKRLEWVAYISKGGGSTYYPDTVKGRFTISRDNSKNTLYLQMNSLRAEDTAVYYCARGAMYGNDFFYPMDYWGQGTTVTVSS
VL: EIVLTQSPATLSLSPGERATLSCSASSSVSYMHWYQQKPGQAPRLLIYTTSNLASGIPARFSGSGSGTDFTLTISSLEPEDFAVYYCHQWSSYPWTFGQGTKLEIK
[9]
  IC50: > 100 nM
[10]
  IC50 of inhibiting NGF-induced TF-1 cell proliferation: > 200 nM
  IC50 of inhibiting NGF-induced TrkA/Ba/F3 cell proliferation: > 200 nM
  inhibition rate for TrkA/Ba/F3 cell proliferation at 40 µg/mL (266.67 nM): < 50%
  inhibition rate on NGF-induced TF-1 cell proliferation at 40 µg/mL (266.67 nM): < 40%
